{
  "source": "paper PMC6954210",
  "proteins": {"B1": {"name": "perilipin 1 (PLIN1): OGT overexpression (protein)", "parent chain": "MSMNKGPTLLDGDLPEQENVLQRVLQLPVVSGTCECFQKTYNSTKEAHPLVASVCNAYEKGVQGASNLAAWSMEPVVRRLSTQFTAANELACRGLDHLEEKIPALQYPPEKIASELKGTISTRLRSARNSISVPIASTSDKVLGATLAGCELALGMAKETAEYAANTRVGRLASGGADLALGSIEKVVEFLLPPDKESAPSSGRQRTQKAPKAKPSLVRRVSTLANTLSRHTMQTTAWALKQGHSLAMWIPGVAPLSSLAQWGASAAMQVVSRRQSEVRVPWLHNLAASQDESHDDQTDTEGEETDDEEEEEESEAEENVLREVTALPNPRGLLGGVVHTVQNTLRNTISAVTWAPAAVLGTVGRILHLTPAQAVSSTKGRAMSLSDALKGVTDNVVDTVVHYVPLPRLSLMEPESEFRDIDNPSAEAERKGSGARPASPESTPRPGQPRGSLRSVRGLSAPSCPGLDDKTEASARPGFLAMPREKPARRVSDSFFRPSVMEPILGRAQYSQLRKKS"}, "B2": {"name": "perilipin 1 (PLIN1): OGT AKI (adipose rOGT knockin) (protein)", "parent chain": "B1 parent chain"}, "B3": {"name": "perilipin 1 (PLIN1): OGT AKO (protein)", "parent chain": "B1 parent chain"}, "B4": {"name": "perilipin 1 (PLIN1): OGT AKO (eWAT) (protein)", "parent chain": "B1 parent chain"}, "B5": {"name": "perilipin 1 (PLIN1): OGT AKO (iWAT) (protein)", "parent chain": "B1 parent chain"}, "B6": {"name": "perilipin 1 (PLIN1): OGT knockout (protein)", "parent chain": "B1 parent chain"}},
  "key": {"[1]": {"assay": "IP, p517 Western blot, IBMX/Fsk stimulation", "settings": "glycan gained; control: no OGT overexpression"}, "[2]": {"assay": "IP, p-Ser Western blot, IBMX/Fsk-treated HeLa", "settings": "glycan gained; control: no OGT overexpression"}, "[3]": {"assay": "IP of endogenous PLIN1, p517 Western blot", "settings": "glycan gained; control: WT mice"}, "[4]": {"assay": "Western blot of PLIN1 in iWAT", "settings": "glycan lost; control: WT mice"}, "[5]": {"assay": "p517 Western blot, fat of 6 h fasted mice", "settings": "glycan lost; control: WT mice"}, "[6]": {"assay": "p492/p517 immunofluorescence, IBMX/Fsk-treated primary eWAT adipocytes", "settings": "glycan lost; control: WT adipocytes"}},
  "data": [
    {"protein": "B1", "values": [
      {"measurement": "other: PLIN1 phosphorylation", "setting": "[1]", "result": "abolishes"},
      {"measurement": "other: PLIN1 phosphorylation", "setting": "[2]", "result": "decreases"}
    ]},
    {"protein": "B2", "values": [
      {"measurement": "other: PLIN1 phosphorylation", "setting": "[3]", "result": "decreases"}
    ]},
    {"protein": "B3", "values": [
      {"measurement": "expression_or_secretion", "setting": "[4]", "result": "no change"}
    ]},
    {"protein": "B4", "values": [
      {"measurement": "other: PLIN1 phosphorylation", "setting": "[5]", "result": "increases"}
    ]},
    {"protein": "B5", "values": [
      {"measurement": "other: PLIN1 phosphorylation", "setting": "[5]", "result": "no change"}
    ]},
    {"protein": "B6", "values": [
      {"measurement": "other: PLIN1 phosphorylation", "setting": "[6]", "result": "increases"}
    ]}
  ]
}
